Experimental data published in PMC10786891, “Massively parallel profiling of RNA-targeting CRISPR-Cas13d”.
Residue numbers refer to the chain shown, from its start. Numbers in names are those of the source.

T1: EsCas13d, nuclease-dead (Eubacterium siraeum, UniProt B0MS50, R295A;H300A;R849A;H854A)
T1 sequence: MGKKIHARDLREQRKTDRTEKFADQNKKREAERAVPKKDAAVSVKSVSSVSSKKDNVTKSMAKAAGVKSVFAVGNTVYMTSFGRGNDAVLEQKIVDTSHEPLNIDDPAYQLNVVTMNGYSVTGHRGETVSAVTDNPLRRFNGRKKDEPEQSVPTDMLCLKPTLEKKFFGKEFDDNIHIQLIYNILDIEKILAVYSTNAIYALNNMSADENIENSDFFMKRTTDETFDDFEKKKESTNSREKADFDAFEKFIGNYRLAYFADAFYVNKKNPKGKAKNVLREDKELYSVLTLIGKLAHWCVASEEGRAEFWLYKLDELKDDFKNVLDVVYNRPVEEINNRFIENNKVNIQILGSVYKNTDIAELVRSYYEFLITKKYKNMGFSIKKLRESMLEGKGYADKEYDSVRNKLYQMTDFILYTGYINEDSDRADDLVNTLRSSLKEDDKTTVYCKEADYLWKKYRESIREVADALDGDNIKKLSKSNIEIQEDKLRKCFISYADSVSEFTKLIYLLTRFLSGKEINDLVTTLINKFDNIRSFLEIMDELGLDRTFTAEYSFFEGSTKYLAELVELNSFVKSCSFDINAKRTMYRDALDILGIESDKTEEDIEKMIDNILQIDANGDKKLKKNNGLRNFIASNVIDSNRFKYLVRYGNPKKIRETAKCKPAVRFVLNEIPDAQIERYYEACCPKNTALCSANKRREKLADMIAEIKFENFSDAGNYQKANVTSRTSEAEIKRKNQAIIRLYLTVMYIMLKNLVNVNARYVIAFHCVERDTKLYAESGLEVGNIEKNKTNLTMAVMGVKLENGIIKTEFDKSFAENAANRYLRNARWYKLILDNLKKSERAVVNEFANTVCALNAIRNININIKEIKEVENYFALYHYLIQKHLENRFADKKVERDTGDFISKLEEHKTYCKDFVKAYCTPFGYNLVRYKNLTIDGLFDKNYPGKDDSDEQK

B1: target 2 MT 5'PFS GAC 3'PFS ACU (mixed)
RNA 1: CACCCGUGCAAAAUUGCAGGGGUCUAAAACCUUCUCCAAAUUGUUUCAUCCU
RNA 2: GGGAAUGGAUCCACAUCUACGAAUUCGACAGGAUGAAACAAUUUGGAGAAGACUAGAUCGGAAGAGCACACGU
B2: target 2 MT 5'PFS GAC 3'PFS ACC (mixed)
RNA 1: B1 RNA 1
RNA 2: B1 RNA 2 with U54C
B3: target 2 MT 5'PFS AAA 3'PFS CGC (mixed)
RNA 1: B1 RNA 1
RNA 2: B1 RNA 2 with G27A, C29A, A52C, C53G, U54C
B4: target 2 MT 5'PFS AUU 3'PFS UGU (mixed)
RNA 1: B1 RNA 1
RNA 2: B1 RNA 2 with G27A, A28U, C29U, A52U, C53G
B5: target 2 MT 5'PFS AAC 3'PFS ACU (mixed)
RNA 1: B1 RNA 1
RNA 2: B1 RNA 2 with G27A
B6: target 2 MT 5'PFS AAC 3'PFS UAG (mixed)
RNA 1: B1 RNA 1
RNA 2: B1 RNA 2 with G27A, A52U, C53A, U54G
B7: target 2 MT 5'PFS ACU 3'PFS CUU (mixed)
RNA 1: B1 RNA 1
RNA 2: B1 RNA 2 with G27A, A28C, C29U, A52C, C53U
B8: target 2 MT 5'PFS UUG 3'PFS AGU (mixed)
RNA 1: B1 RNA 1
RNA 2: B1 RNA 2 with G27U, A28U, C29G, C53G
B9: target 2 MT 5'PFS AAU 3'PFS UGU (mixed)
RNA 1: B1 RNA 1
RNA 2: B1 RNA 2 with G27A, C29U, A52U, C53G
B10: target 2 MT 5'PFS GAA 3'PFS AUC (mixed)
RNA 1: B1 RNA 1
RNA 2: B1 RNA 2 with C29A, C53U, U54C
B11: target 2 MT 5'PFS GAC 3'PFS ACA (mixed)
RNA 1: B1 RNA 1
RNA 2: B1 RNA 2 with U54A
B12: target 2 MT 5'PFS ACU 3'PFS CUA (mixed)
RNA 1: B1 RNA 1
RNA 2: B1 RNA 2 with G27A, A28C, C29U, A52C, C53U, U54A
B13: target 2 MT 5'PFS UUU 3'PFS UAU (mixed)
RNA 1: B1 RNA 1
RNA 2: B1 RNA 2 with G27U, A28U, C29U, A52U, C53A
B14: target 2 MT 5'PFS GAC 3'PFS ACG (mixed)
RNA 1: B1 RNA 1
RNA 2: B1 RNA 2 with U54G
B15: target 2 MT 5'PFS AUU 3'PFS CAA (mixed)
RNA 1: B1 RNA 1
RNA 2: B1 RNA 2 with G27A, A28U, C29U, A52C, C53A, U54A
B16: target 2 MT 5'PFS UAG 3'PFS UGA (mixed)
RNA 1: B1 RNA 1
RNA 2: B1 RNA 2 with G27U, C29G, A52U, C53G, U54A
B17: target 2 MT 5'PFS GAA 3'PFS AUG (mixed)
RNA 1: B1 RNA 1
RNA 2: B1 RNA 2 with C29A, C53U, U54G
B18: target 2 MT 5'PFS GAA 3'PFS AUA (mixed)
RNA 1: B1 RNA 1
RNA 2: B1 RNA 2 with C29A, C53U, U54A
B19: target 2 MT 5'PFS CGA 3'PFS UUC (mixed)
RNA 1: B1 RNA 1
RNA 2: B1 RNA 2 with G27C, A28G, C29A, A52U, C53U, U54C
B20: target 2 MT 5'PFS UUG 3'PFS AGA (mixed)
RNA 1: B1 RNA 1
RNA 2: B1 RNA 2 with G27U, A28U, C29G, C53G, U54A
B21: target 2 MT 5'PFS GUA 3'PFS UGC (mixed)
RNA 1: B1 RNA 1
RNA 2: B1 RNA 2 with A28U, C29A, A52U, C53G, U54C
B22: target 2 MT 5'PFS AAA 3'PFS CGA (mixed)
RNA 1: B1 RNA 1
RNA 2: B1 RNA 2 with G27A, C29A, A52C, C53G, U54A
B23: target 2 MT 5'PFS AAC 3'PFS UAA (mixed)
RNA 1: B1 RNA 1
RNA 2: B1 RNA 2 with G27A, A52U, C53A, U54A
B24: target 2 MT 5'PFS UUG 3'PFS AGG (mixed)
RNA 1: B1 RNA 1
RNA 2: B1 RNA 2 with G27U, A28U, C29G, C53G, U54G
B25: target 2 MT 5'PFS CGA 3'PFS CUC (mixed)
RNA 1: B1 RNA 1
RNA 2: B1 RNA 2 with G27C, A28G, C29A, A52C, C53U, U54C
B26: target 2 MT 5'PFS ACU 3'PFS CUC (mixed)
RNA 1: B1 RNA 1
RNA 2: B1 RNA 2 with G27A, A28C, C29U, A52C, C53U, U54C
B27: target 2 MT 5'PFS GCC 3'PFS UCA (mixed)
RNA 1: B1 RNA 1
RNA 2: B1 RNA 2 with A28C, A52U, U54A
B28: target 2 MT 5'PFS UUG 3'PFS AGC (mixed)
RNA 1: B1 RNA 1
RNA 2: B1 RNA 2 with G27U, A28U, C29G, C53G, U54C
B29: target 2 MT 5'PFS UUU 3'PFS UAA (mixed)
RNA 1: B1 RNA 1
RNA 2: B1 RNA 2 with G27U, A28U, C29U, A52U, C53A, U54A
B30: target 2 MT 5'PFS UGC 3'PFS CUA (mixed)
RNA 1: B1 RNA 1
RNA 2: B1 RNA 2 with G27U, A28G, A52C, C53U, U54A
B31: target 2 MT 5'PFS ACU 3'PFS CUG (mixed)
RNA 1: B1 RNA 1
RNA 2: B1 RNA 2 with G27A, A28C, C29U, A52C, C53U, U54G
B32: target 2 MT 5'PFS AAC 3'PFS UAC (mixed)
RNA 1: B1 RNA 1
RNA 2: B1 RNA 2 with G27A, A52U, C53A, U54C
B33: target 2 MT 5'PFS UUU 3'PFS UAC (mixed)
RNA 1: B1 RNA 1
RNA 2: B1 RNA 2 with G27U, A28U, C29U, A52U, C53A, U54C
B34: target 1 U8G,A14G (mixed)
RNA 1: CACCCGUGCAAAAAUGCAGGGGUCUAAAACUGAGCGGAUAACCUCUCUAUGG
RNA 2: GGGAAUGGAUCCACAUCUACGAAUUCGUACCAUAGAGGGGUUAGCCGCUCACCGAGAUCGGAAGAGCACACGU
B35: target 1 insG 3' of 4,insC 3' of 1 (mixed)
RNA 1: B34 RNA 1
RNA 2: GGGAAUGGAUCCACAUCUACGAAUUCGUACCAUAGAGAGGUUAUCCGCGUCACCCGAGAUCGGAAGAGCACACGU
B36: target 1 insG 3' of 4,insA 3' of 2 (mixed)
RNA 1: B34 RNA 1
RNA 2: B35 RNA 2 with C53A
B37: target 1 insA 3' of 17,insU 3' of 9 (mixed)
RNA 1: B34 RNA 1
RNA 2: GGGAAUGGAUCCACAUCUACGAAUUCGUACCAUAGAAGAGGUUAUUCCGCUCACCGAGAUCGGAAGAGCACACGU

Biological target: T1, EsCas13d, nuclease-dead
Test: crRNA (strand 1, pre-loaded); Mg2+; 40 mM Tris-HCl pH 7.5, 150 mM NaCl, 6 mM MgCl2, 1 mM DTT, 0.1% Tween-20, 0.2 mg/ml BSA; 25 C; 10 min per concentration, then washed
Details: tags: His6-TwinStrep-SUMO cleaved; N-terminal SNAP kept (SNAP-Surface 488); label: 3' end held by stalled T7 RNA polymerase

Binder | Kd [nM]
B1 | 30 ± 10
B2 | 14.7 ± 2.3
B3 | 3.3 ± 1
B4 | 13.5 ± 1.7
B5 | 9.1 ± 3.1
B6 | 6.8 ± 1.6
B7 | 6.2 ± 0.6
B8 | 14.5 ± 2.2
B9 | 9.1 ± 1.4
B10 | 10.2 ± 1.6
B11 | 12.9 ± 2.6
B12 | 3.5 ± 0.5
B13 | 8.4 ± 0.9
B14 | 13.6 ± 2.1
B15 | 5 ± 0.6
B16 | 4.1 ± 0.8
B17 | 8.3 ± 1.1
B18 | 8.1 ± 1.4
B19 | 11.5 ± 1.9

Binder | Kd [nM]
B20 | 7.9 ± 0.5
B21 | 11.4 ± 1.5
B22 | 3.4 ± 0.8
B23 | 7.4 ± 2.6
B24 | 14.1 ± 1.5
B25 | 9.3 ± 1.8
B26 | 5.4 ± 1.4
B27 | 17 ± 4
B28 | 13.7 ± 2
B29 | 10.9 ± 1.7
B30 | 16 ± 6
B31 | 6 ± 0.7
B32 | 5.2 ± 1.2
B33 | 9.1 ± 1.2
B34 | 22.9 ± 1.2
B35 | 12.6 ± 1
B36 | 5.43 ± 0.18
B37 | 18.6 ± 3.3
